Assay results from paper PMC8018780, “Two peptides targeting endothelial receptors are internalized into murine brain endothelial cells” (PLoS ONE, 2021).
Ends that are not written are not given here.

Target: recombinant mouse transferrin receptor (TfR) protein (mouse) (UniProt Q62351)
Experiment: SPR; Biacore 3000, CM5 chip, receptors immobilised by EDC/NHS coupling (TfR 58 fmol/mm^2, LRP-1 0.025 fmol/mm^2); peptides injected at 0.25-4 uM, 5 uL/min, 25°C, 10 mM HEPES, 150 mM NaCl, 1.5 mM CaCl2, 1 mM EGTA, 0.005% Tween 20, pH 7.4; Langmuir 1:1 model, global fit

Chain of recombinant mouse transferrin receptor (TfR) protein (mouse) (Q62351 whole entry): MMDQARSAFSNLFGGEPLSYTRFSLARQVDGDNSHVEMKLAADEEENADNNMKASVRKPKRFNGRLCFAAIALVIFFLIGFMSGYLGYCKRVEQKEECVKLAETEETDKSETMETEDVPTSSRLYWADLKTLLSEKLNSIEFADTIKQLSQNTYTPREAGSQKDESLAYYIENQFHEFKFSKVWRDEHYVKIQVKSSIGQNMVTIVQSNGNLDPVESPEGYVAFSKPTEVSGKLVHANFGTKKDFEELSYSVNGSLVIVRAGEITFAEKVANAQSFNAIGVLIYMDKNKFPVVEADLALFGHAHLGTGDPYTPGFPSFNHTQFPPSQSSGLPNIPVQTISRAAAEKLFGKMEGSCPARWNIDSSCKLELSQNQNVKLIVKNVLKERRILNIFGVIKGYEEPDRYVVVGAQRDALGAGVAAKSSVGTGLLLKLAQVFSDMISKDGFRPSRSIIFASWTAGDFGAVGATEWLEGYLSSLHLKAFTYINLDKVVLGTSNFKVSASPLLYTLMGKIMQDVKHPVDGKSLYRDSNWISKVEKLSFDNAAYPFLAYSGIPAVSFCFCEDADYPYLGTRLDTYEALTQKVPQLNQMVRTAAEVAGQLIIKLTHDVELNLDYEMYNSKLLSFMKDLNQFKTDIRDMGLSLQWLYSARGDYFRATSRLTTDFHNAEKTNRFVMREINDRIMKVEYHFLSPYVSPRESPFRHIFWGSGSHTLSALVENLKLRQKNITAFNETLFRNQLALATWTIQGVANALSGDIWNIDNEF

Kd: 1000 µM
Binder: GYRPVHNIRGHWAPGK-NH2 [GYR (peptide 2)]
